According to patent US8734776B2 (ZymoGenetics, Inc., priority 2003, dated 2014):
Like-named read-outs stand apart in the source and are kept apart here.

How the values were obtained:
[1] = test system: coxsackie virus; assay type: cell-based; conditions: Coxsackie B4 virus, KB cells
[2] = test system: adenovirus; assay type: cell-based; conditions: A549 cells
[3] = test system: venezuelan equine encephalitis virus; assay type: cell-based; conditions: Vero cells
[4] = test system: vaccinia virus; assay type: cell-based; conditions: Vero cells
[5] = test system: parainfluenza virus; assay type: cell-based; conditions: MA-104 cells
[6] = test system: polio virus; assay type: cell-based; conditions: Vero cells
[7] = test system: human marrow mononuclear cells; experiment: Bone marrow expansion assay (Alamar Blue); assay type: cell-based
[8] = test system: respiratory syncytial virus; assay type: cell-based; conditions: MA-104 cells
[9] = test system: EMCV; experiment: EMCV antiviral dye-uptake assay in HepG2 cells; assay type: cell-based, human; conditions: dye-uptake OD570
[10] = test system: dengue virus; assay type: cell-based; conditions: Vero cells
[11] = test system: polio virus; assay type: cell-based; conditions: Vero cells; remark: listed apart in the source
[12] = test system: vaccinia virus; assay type: cell-based; conditions: Vero cells; remark: listed apart in the source
[13] = test system: IL-28RA mRNA; experiment: Semi-quantitative RT-PCR of IL-28RA, IFNAR2 and CRF2-4 mRNA; assay type: cell-based, human; conditions: HepG2 cells + cytokine
Method: In order to further examine the mRNA distribution for IL-28RA, semi-quantitative RT-PCR was performed using the SDS 7900HT system (Applied Biosystems, CA). One-step RT-PCR was performed using 100 ng total RNA for each sample and gene-specific primers. A standard curve was generated for each primer set using Bjab RNA and all sample values were normalized to HPRT. The normalized values for IFNAR2 and CRF2-4 are also shown.

[14] = test system: encephelomyocarditis virus; experiment: Antiviral assay: cytopathic effect in HeLa cells; assay type: cell-based, human
[15] = test system: BCBL-1 cells
[16] = test system: influenza virus; assay type: cell-based; conditions: Influenza (type A [H3N2])
[17] = test system: venezuelan equine encephalitis virus; assay type: cell-based; conditions: Vero cells; remark: listed apart in the source
[18] = test system: parainfluenza virus; assay type: cell-based; conditions: MA-104 cells; remark: listed apart in the source
[19] = test system: BVDV; experiment: BVDV CPE inhibition assay in MDBK cells; assay type: cell-based; conditions: MDBK bovine kidney cells
Method: IFNα and RIBAVIRIN® were used as positive controls. Test sample were added at the time of viral infection.

[20] = test system: pichinde virus; assay type: cell-based
[21] = test system: OAS; experiment: OAS activity in serum and plasma of mice (RIA)
[22] = test system: encephelomyocarditis virus; experiment: Antiviral assay: cytopathic effect in L929 cells; assay type: cell-based, mouse
[23] = test system: west nile virus; assay type: cell-based; conditions: Vero cells
[24] = test system: HHV-8; experiment: HHV-8 replication in BCBL-1 cells (TaqMan PCR)
[25] = test system: rhino virus; assay type: cell-based
[26] = test system: pichinde virus; assay type: cell-based; remark: listed apart in the source
[27] = Maden-Darby Canine Kidney cells

B1: IL-29: human IL-29, previously designated zcyto21, SEQ ID NO:4 (protein, listed as Homo sapiens)
chain: MAAAWTVVLVTLVLGLAVAGPVPTSKPTTTGKGCHIGRFKSLSPQELASFKKARDALEESLKLKNWSCSSPVFPGNWDLRLLQVRERPVALEAELALTLKVLEAAAGPALEDVLDQPLHTLHHILSQLQACIQPQPTAGPRPRGRLHHWLHRLQEAPKKESAGCLEASVTFNLFRLLTRDLKYVADGNLCLRTSTHPEST
modifications: SIGNAL (1)...(19)
- EC50 NR [1]: >10 µg/mL
- IC50 NR [1]: >10 µg/mL
- EC50 Visual [2]: >10 µg/mL
- IC50 Visual [2]: >10 µg/mL
- EC50 Visual [3]: 0.012 µg/mL
- IC50 Visual [3]: >10 µg/mL
- EC50 NR [4]: >10 µg/mL
- IC50 NR [4]: >10 µg/mL
- EC50 NR [5]: >10 µg/mL
- IC50 NR [5]: >10 µg/mL
- EC50 Visual [6]: >10 µg/mL
- IC50 Visual [6]: >10 µg/mL
- bone marrow cell expansion ([7]; in the presence of IL-2 or IL-15): small inhibition
- expansion of bone marrow cells ([7]; in the presence of IL-3, IL-4, IL-5, IL-7, IL-10, IL-12, IL-21 or no added cytokine): no significant effect
- EC50 Visual [8]: >10 µg/mL
- IC50 Visual [8]: >10 µg/mL
- EC50 antiviral activity [9]: 0.0006 µg/mL
- EC50 Visual [10]: 0.032 µg/mL
- IC50 Visual [10]: >10 µg/mL
- EC50 NR [11]: >10 µg/mL
- IC50 NR [11]: >10 µg/mL
- EC50 Visual [12]: >10 µg/mL
- IC50 Visual [12]: >10 µg/mL
- CRF2-4 mRNA normalized to HPRT [13]: 3.01
- IFNAR2 mRNA normalized to HPRT [13]: 2.53
- IL-28RA mRNA normalized to HPRT [13]: 2.28
- Percentage Cytopathic Effect ([14]; relative CM concentration .008X): 56%
- Percentage Cytopathic Effect ([14]; relative CM concentration .0156X): 31%
- Percentage Cytopathic Effect ([14]; relative CM concentration .0325X): 10%
- Percentage Cytopathic Effect ([14]; relative CM concentration .0625X): 10%
- Percentage Cytopathic Effect ([14]; relative CM concentration .125X): 5%
- Percentage Cytopathic Effect ([14]; relative CM concentration .25X): 0%
- Percentage Cytopathic Effect ([14]; relative CM concentration .5X): 0%
- TC50 [15]: > 10 µg/mL
- EC50 Visual [16, 27]: >10 µg/mL
- IC50 Visual [16, 27]: >10 µg/mL
- EC50 Visual ([16]; Vero cells): >10 µg/mL
- IC50 Visual ([16]; Vero cells): >10 µg/mL
- EC50 NR [17]: 0.05 µg/mL
- IC50 NR [17]: >10 µg/mL
- EC50 Visual [18]: >10 µg/mL
- IC50 Visual [18]: >10 µg/mL
- IC50 inhibition of cell death induced by BVDV [19]: 0.19 µg/mL
- EC50 Visual [20]: >10 µg/mL
- IC50 Visual [20]: >10 µg/mL
- OAS activity in the serum and plasma of mice ([21]; C57BL/6 mice, i.v, 10 μg-250 μg): induced OAS activity
- OAS-1 hr (OAS activity) ([21]; mouse plasma, 250 μg i.v., 1 hr): 80 pmol/dL
- OAS-6 hr (OAS activity) ([21]; mouse plasma, 250 μg i.v., 6 hr): 80 pmol/dL
- OAS-24 hr (OAS activity) ([21]; mouse plasma, 250 μg i.v., 24 hr): 180 pmol/dL
- OAS-48 hr (OAS activity) ([21]; mouse plasma, 250 μg i.v., 48 hr): 200 pmol/dL
- Percentage Cytopathic Effect ([22]; relative CM conc. .008X): 87%
- Percentage Cytopathic Effect ([22]; relative CM conc. .0156X): 87%
- Percentage Cytopathic Effect ([22]; relative CM conc. .0325X): 87%
- Percentage Cytopathic Effect ([22]; relative CM conc. .0625X): 87%
- Percentage Cytopathic Effect ([22]; relative CM conc. .125X): 87%
- Percentage Cytopathic Effect ([22]; relative CM conc. .25X): 87%
- Percentage Cytopathic Effect ([22]; relative CM conc. .5X): 87%
- EC50 Visual [23]: 0.032 ng/mL
- IC50 Visual [23]: >10 µg/mL
- TI (TC50/IC50) [24]: > 1.85
- IC50 HHV-8 viral replication ([24]; extracellular HHV-8 DNA): 6.5 µg/mL
- EC50 Visual ([25]; Rhino 2, KB cells): >10 µg/mL
- IC50 Visual ([25]; Rhino 2, KB cells): >10 µg/mL
- EC50 Visual ([25]; Rhino 9, HeLa cells): >10 µg/mL
- IC50 Visual ([25]; Rhino 9, HeLa cells): >10 µg/mL
- EC50 NR [26]: >10 µg/mL
- IC50 NR [26]: >10 µg/mL
